Assay results: patent publication US20040146984

How the values were obtained:
[1] = system: T1, LPXTG-containing peptide KRQLPSTGETANPFY from the streptococcal M6 protein
T1 sequence: KRQLPSTGETANPFY

[2] = biological target: native bovine serum albumin (UniProt P02769)
[3] = system: peptide in which the LPSTGE was randomly placed (TEPGSL)
[4] = system: peptide in which the LPSTGE was reversed (EGTSPL)

Sequence of native bovine serum albumin (P02769 25-607): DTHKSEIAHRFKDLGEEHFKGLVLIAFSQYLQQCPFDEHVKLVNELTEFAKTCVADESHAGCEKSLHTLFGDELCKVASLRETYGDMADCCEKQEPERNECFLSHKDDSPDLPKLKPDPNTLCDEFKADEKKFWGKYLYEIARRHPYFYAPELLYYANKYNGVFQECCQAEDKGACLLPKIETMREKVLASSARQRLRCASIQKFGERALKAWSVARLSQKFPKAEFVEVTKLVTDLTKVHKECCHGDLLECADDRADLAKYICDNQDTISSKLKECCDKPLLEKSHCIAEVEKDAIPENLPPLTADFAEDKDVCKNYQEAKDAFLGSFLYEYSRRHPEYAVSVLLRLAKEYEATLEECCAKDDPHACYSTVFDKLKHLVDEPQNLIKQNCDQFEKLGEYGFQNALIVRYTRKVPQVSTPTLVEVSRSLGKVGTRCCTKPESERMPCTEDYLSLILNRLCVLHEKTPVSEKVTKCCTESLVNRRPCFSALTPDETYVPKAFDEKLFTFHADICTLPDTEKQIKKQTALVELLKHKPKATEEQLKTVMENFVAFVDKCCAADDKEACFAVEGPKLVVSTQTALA

LPXTGase
% of control (Calcium chloride 20 mM) [1]: 23 % of control
% of control (Control, no salt) [1]: 100 % of control
% of control (EDTA 20 mM) [1]: 5.2 % of control
% of control (Hydroxylamine-HCl 100 mM) [1]: 27 % of control
% of control (Magnesium chloride 20 mM) [1]: 20 % of control
% of control (Potassium chloride 100 mM) [1]: 20 % of control
% of control (Putrescene chloride 20 mM) [1]: 21 % of control
% of control (Sodium chloride 100 mM) [1]: 16 % of control
% of control (Sodium phosphate 20 mM) [1]: 49 % of control
% of control (Sodium sulfate 20 mM) [1]: 57 % of control
Km (Lineweaver-Burk plot of cleavage of 125I-labeled peptide, 20 to 240 µM, 2.4 µM enzyme, 30 min) [1]: Km of 0.26 mM
Vmax (Lineweaver-Burk plot of cleavage of 125I-labeled peptide) [1]: Vmax of 67 µM in 30 min when 2.4 µM of enzyme was used in the assay
cleavage of bead-bound peptide, N-terminal sequencing of the fragment [1]: the enzyme cleaved after glutamic acid within the LPSTGE (SEQ ID NO:3) sequence releasing the TANPFY (SEQ ID NO:6) peptide fragment
cleavage of free peptide, sequencing of the fragments [1]: the enzyme cleaved the free KRQLPSTGETANPFY (SEQ ID NO:2) peptide at two sites, after the serine and the glutamic acid of LPSTGE
peptide cleaved, cpm (Calcium chloride 20 mM) [1]: 9710 cpm
peptide cleaved, cpm (Control, no salt) [1]: 41500 cpm
peptide cleaved, cpm (EDTA 20 mM) [1]: 2150 cpm
peptide cleaved, cpm (Hydroxylamine-HCl 100 mM) [1]: 11200 cpm
peptide cleaved, cpm (Magnesium chloride 20 mM) [1]: 8620 cpm
peptide cleaved, cpm (Potassium chloride 100 mM) [1]: 8610 cpm
peptide cleaved, cpm (Putrescene chloride 20 mM) [1]: 8710 cpm
peptide cleaved, cpm (Sodium chloride 100 mM) [1]: 6720 cpm
peptide cleaved, cpm (Sodium phosphate 20 mM) [1]: 20600 cpm
peptide cleaved, cpm (Sodium sulfate 20 mM) [1]: 23500 cpm
cleavage (SDS-PAGE for degradation) [2]: No cleavage was observed when native bovine serum albumin was reacted in a similar way
cleavage of bead-bound or free peptide [3]: no cleavage was observed (not shown)
cleavage of bead-bound or free peptide [4]: no cleavage was observed (not shown)
